Data taken from article PMC10397247.
One block for each binder: values may come before it.

Assays:
[1] = target: T1, O2-bP; assay: two-hybrid library CCNG1;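 note: natural log of median RNA to DNA barcode read ratio; higher means stronger binding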
T1 chain: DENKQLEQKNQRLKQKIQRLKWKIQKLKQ

[2] = target: T2, O3-bP; assay: two-hybrid library CCNG1;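 note: natural log of median RNA to DNA barcode read ratio; higher means stronger binding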
T2 chain: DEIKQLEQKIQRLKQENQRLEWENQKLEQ

[3] = target: T3, O4-bP; assay: two-hybrid library CCNG1;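 note: natural log of median RNA to DNA barcode read ratio; higher means stronger binding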
T3 chain: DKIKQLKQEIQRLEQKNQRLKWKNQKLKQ

[4] = target: T4, O5-bP; assay: two-hybrid library CCNG1;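 note: natural log of median RNA to DNA barcode read ratio; higher means stronger binding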
T4 chain: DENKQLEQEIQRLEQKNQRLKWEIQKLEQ

[5] = target: T5, O6-bP; assay: two-hybrid library CCNG1;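 note: natural log of median RNA to DNA barcode read ratio; higher means stronger binding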
T5 chain: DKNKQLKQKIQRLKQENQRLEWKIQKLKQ

[6] = target: T6, O7-bP; assay: two-hybrid library CCNG1;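 note: natural log of median RNA to DNA barcode read ratio; higher means stronger binding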
T6 chain: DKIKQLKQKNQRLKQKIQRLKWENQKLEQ

[7] = target: T7, O8-bP; assay: two-hybrid library CCNG1
T7 chain: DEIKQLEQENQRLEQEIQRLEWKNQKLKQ

[8] = target: T8, O9-bP; assay: two-hybrid library CCNG1
T8 chain: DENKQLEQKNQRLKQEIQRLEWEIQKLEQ

[9] = target: T9, 4H2729-bA; assay: two-hybrid library CCNG1
T9 chain: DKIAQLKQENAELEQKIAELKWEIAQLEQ

[10] = target: T10, 4H3112-bA; assay: two-hybrid library CCNG1
T10 chain: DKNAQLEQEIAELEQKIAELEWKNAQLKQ

[11] = target: T11, 4H3185-bA; assay: two-hybrid library CCNG1
T11 chain: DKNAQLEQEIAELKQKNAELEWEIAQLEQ

[12] = target: T12, 4H331-bA; assay: two-hybrid library CCNG1
T12 chain: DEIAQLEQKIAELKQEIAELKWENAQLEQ

[13] = target: T13, 4H3354-bA; assay: two-hybrid library CCNG1
T13 chain: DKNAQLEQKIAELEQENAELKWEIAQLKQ

[14] = target: T14, 4H338-bA; assay: two-hybrid library CCNG1
T14 chain: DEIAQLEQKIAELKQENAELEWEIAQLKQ

[15] = target: T15, 4H3427-bA; assay: two-hybrid library CCNG1
T15 chain: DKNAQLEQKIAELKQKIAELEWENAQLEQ

[16] = target: T16, 4H3782-bA; assay: two-hybrid library CCNG1
T16 chain: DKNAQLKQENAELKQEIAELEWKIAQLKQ

[17] = target: T17, 4H3855-bA; assay: two-hybrid library CCNG1
T17 chain: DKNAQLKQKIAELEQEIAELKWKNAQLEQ

[18] = target: T18, 4H4001-bA; assay: two-hybrid library CCNG1
T18 chain: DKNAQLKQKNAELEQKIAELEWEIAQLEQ

[19] = target: T19, 4H454-bA; assay: two-hybrid library CCNG1
T19 chain: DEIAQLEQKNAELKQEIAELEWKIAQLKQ

[20] = target: T20, 4H568-bA; assay: two-hybrid library CCNG1
T20 chain: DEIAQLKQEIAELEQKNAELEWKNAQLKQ

[21] = target: T21, 4H607-bA; assay: two-hybrid library CCNG1
T21 chain: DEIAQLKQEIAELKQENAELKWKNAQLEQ

[22] = target: T22, 4H687-bA; assay: two-hybrid library CCNG1
T22 chain: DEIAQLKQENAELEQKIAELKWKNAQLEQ

[23] = target: T23, 4H717-bA; assay: two-hybrid library CCNG1
T23 chain: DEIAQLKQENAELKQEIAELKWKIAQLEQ

[24] = target: T24, 4H72-bA; assay: two-hybrid library CCNG1
T24 chain: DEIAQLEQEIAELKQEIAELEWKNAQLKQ

[25] = target: T25, 4H754-bA; assay: two-hybrid library CCNG1
T25 chain: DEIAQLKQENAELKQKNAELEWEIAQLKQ

[26] = target: T26, 4H797-bA; assay: two-hybrid library CCNG1
T26 chain: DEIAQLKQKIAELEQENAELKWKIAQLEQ

[27] = target: T27, 4H883-bA; assay: two-hybrid library CCNG1
T27 chain: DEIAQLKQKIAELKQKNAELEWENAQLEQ

[28] = target: T28, 4H908-bA; assay: two-hybrid library CCNG1; conditions: mean of both orientations
T28 chain: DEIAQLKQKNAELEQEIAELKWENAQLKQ

[29] = target: T29, 4H918-bA; assay: two-hybrid library CCNG1
T29 chain: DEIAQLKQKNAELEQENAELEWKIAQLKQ

[30] = target: T30, 4H953-bA; assay: two-hybrid library CCNG1
T30 chain: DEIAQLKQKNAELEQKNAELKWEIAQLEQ

[31] = target: T31, 4H967-bA; assay: two-hybrid library CCNG1
T31 chain: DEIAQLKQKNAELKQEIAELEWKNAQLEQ

[32] = target: T32, APC2543-AA; assay: two-hybrid library CCmax
T32 chain: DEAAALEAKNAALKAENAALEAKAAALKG

[33] = target: T33, APC2556-AA; assay: two-hybrid library CCmax; conditions: mean of both orientations
T33 chain: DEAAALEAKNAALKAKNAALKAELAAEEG

[34] = target: T34, APC2724-AA; assay: two-hybrid library CCmax
T34 chain: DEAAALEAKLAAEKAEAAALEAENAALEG

[35] = target: T35, APC2811-AA; assay: two-hybrid library CCmax; conditions: mean of both orientations
T35 chain: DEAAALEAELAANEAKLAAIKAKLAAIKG

[36] = target: T36, APC2981-AA; assay: two-hybrid library CCmax; conditions: mean of both orientations
T36 chain: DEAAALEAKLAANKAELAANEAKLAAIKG

[37] = target: T37, APC3265-AA; assay: two-hybrid library CCmax; conditions: mean of both orientations
T37 chain: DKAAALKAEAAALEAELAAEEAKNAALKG

[38] = target: T38, APC3323-AA; assay: two-hybrid library CCmax; conditions: mean of both orientations
T38 chain: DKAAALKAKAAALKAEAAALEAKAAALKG

[39] = target: T39, APC3354-AA; assay: two-hybrid library CCmax; conditions: mean of both orientations
T39 chain: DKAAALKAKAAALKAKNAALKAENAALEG

[40] = target: T40, APC3881-AA; assay: two-hybrid library CCmax; conditions: mean of both orientations
T40 chain: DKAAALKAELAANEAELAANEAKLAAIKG

[41] = target: T41, APC4100-AA; assay: two-hybrid library CCmax; conditions: mean of both orientations
T41 chain: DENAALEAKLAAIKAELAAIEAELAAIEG

[42] = target: T42, APC4336-AA; assay: two-hybrid library CCmax; conditions: mean of both orientations
T42 chain: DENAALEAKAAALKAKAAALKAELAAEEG

[43] = target: T43, APC5009-AA; assay: two-hybrid library CCmax; conditions: mean of both orientations
T43 chain: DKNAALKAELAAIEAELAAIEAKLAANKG

[44] = target: T44, APC542-AA; assay: two-hybrid library CCmax; conditions: mean of both orientations
T44 chain: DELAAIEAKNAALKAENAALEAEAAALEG

[45] = target: T45, APC5531-AA; assay: two-hybrid library CCmax; conditions: mean of both orientations
T45 chain: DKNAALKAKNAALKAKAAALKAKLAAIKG

[46] = target: T46, APC6088-AA; assay: two-hybrid library CCmax; conditions: mean of both orientations
T46 chain: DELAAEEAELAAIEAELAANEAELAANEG

[47] = target: T47, APC7524-AA; assay: two-hybrid library CCmax; conditions: mean of both orientations
T47 chain: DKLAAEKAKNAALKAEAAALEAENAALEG

[48] = target: T48, APC8401-AA; assay: two-hybrid library CCmax; conditions: mean of both orientations
T48 chain: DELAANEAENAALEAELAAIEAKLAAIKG

[49] = target: T49, APC8516-AA; assay: two-hybrid library CCmax; conditions: mean of both orientations
T49 chain: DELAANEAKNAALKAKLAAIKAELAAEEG

[50] = target: T50, APC9141-AA; assay: two-hybrid library CCmax; conditions: mean of both orientations
T50 chain: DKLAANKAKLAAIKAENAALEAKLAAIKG

[51] = target: T51, APC9182-AA; assay: two-hybrid library CCmax; conditions: mean of both orientations
T51 chain: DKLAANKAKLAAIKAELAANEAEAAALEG

[52] = target: T52, APC9291-AA; assay: two-hybrid library CCmax; conditions: mean of both orientations
T52 chain: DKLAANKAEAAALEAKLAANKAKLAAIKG

[53] = target: T53, APC9806-AA; assay: two-hybrid library CCmax; conditions: mean of both orientations
T53 chain: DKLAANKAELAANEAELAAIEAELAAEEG

[54] = target: T54, 4H3175-bH; assay: two-hybrid library CCNG1
T54 chain: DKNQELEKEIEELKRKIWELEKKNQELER

[55] = target: T55, 4H3277-bH; assay: two-hybrid library CCNG1
T55 chain: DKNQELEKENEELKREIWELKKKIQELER

[56] = target: T56, 4H3298-bH; assay: two-hybrid library CCNG1
T56 chain: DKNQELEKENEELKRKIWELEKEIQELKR

[57] = target: T57, 4H3462-bH; assay: two-hybrid library CCNG1
T57 chain: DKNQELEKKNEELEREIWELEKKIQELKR

[58] = target: T58, 4H3497-bH; assay: two-hybrid library CCNG1
T58 chain: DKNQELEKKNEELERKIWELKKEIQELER

[59] = target: T59, 4H3613-bH; assay: two-hybrid library CCNG1
T59 chain: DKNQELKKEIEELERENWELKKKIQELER

[60] = target: T60, 4H3628-bH; assay: two-hybrid library CCNG1
T60 chain: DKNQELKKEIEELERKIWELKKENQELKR

[61] = target: T61, 4H3926-bH; assay: two-hybrid library CCNG1
T61 chain: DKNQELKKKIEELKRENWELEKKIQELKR

[62] = target: T62, 4H591-bH; assay: two-hybrid library CCNG1
T62 chain: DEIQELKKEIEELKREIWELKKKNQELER

[63] = target: T63, 4H626-bH; assay: two-hybrid library CCNG1
T63 chain: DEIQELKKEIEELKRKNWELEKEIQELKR

[64] = target: T64, 4H906-bH; assay: two-hybrid library CCNG1
T64 chain: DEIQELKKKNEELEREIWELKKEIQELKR

[65] = target: T65, 4H918-bH; assay: two-hybrid library CCNG1
T65 chain: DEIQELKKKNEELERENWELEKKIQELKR

Binder: DENKQLEQKNQRLKQKIQRLKWKIQKLKQ [O2-bP]
interaction score [1]: -1.2 | interaction score [2]: -0.635 | interaction score [3]: -0.811 | interaction score [4]: -0.804 | interaction score [5]: -0.766 | interaction score [6]: -0.723 | interaction score [7]: -1.21 | interaction score [8]: -1.4

Binder: DKIAQLKQENAELEQKIAELKWEIAQLEQ [4H2729-bA]
interaction score [9]: -0.254 | interaction score [10]: -0.141 | interaction score [11]: -0.331 | interaction score [12]: -1.18 | interaction score [13]: -0.919 | interaction score [14]: -0.713 | interaction score [15]: -0.88 | interaction score [16]: 0.712 | interaction score [17]: -0.46 | interaction score [18]: -0.575 | interaction score [19]: 1.84 | interaction score [20]: -1.78 | interaction score [21]: -1.29 | interaction score [22]: -1.51 | interaction score [23]: -1.35 | interaction score [24]: -0.336 | interaction score [25]: -0.709 | interaction score [26]: -1.21 | interaction score [27]: -1.72 | interaction score [28]: -0.401 | interaction score [29]: 1.73 | interaction score [30]: -1.01 | interaction score [31]: 0.0132

More lines, now with the values ahead:

interaction score [32]: -1.71 | interaction score [33]: -1.67 | interaction score [34]: -1.16 | interaction score [35]: -1.54 | interaction score [36]: -1.4 | interaction score [37]: -1.58 | interaction score [38]: -1.36 | interaction score [39]: -1.72 | interaction score [40]: -1.22 | interaction score [41]: -1.65 | interaction score [42]: -1.73 | interaction score [43]: -1.04 | interaction score [44]: -1.65 | interaction score [45]: -1.8 | interaction score [46]: -1.87 | interaction score [47]: -1.63 | interaction score [48]: -1.23 | interaction score [49]: -1.7 | interaction score [50]: -1.6 | interaction score [51]: -1.84 | interaction score [52]: -1.67 | interaction score [53]: -1.56
Binder: DEAAALEAKNAALKAENAALEAKAAALKG [APC2543-AA]

interaction score [54]: 0.103 | interaction score [55]: -0.0103 | interaction score [56]: -0.132 | interaction score [57]: 0.891 | interaction score [58]: 0.402 | interaction score [59]: -0.475 | interaction score [60]: -0.799 | interaction score [61]: -0.189 | interaction score [62]: -2.15 | interaction score [63]: -1.62 | interaction score [64]: 0.787 | interaction score [65]: -1.69
Binder: DKNQELEKEIEELKRKIWELEKKNQELER [4H3175-bH]
